Assay results reported in the supplement of paper PMC10065799, “High-throughput profiling of sequence recognition by tyrosine kinases and SH2 domains using bacterial peptide display” (eLife, 2023).

How the values were obtained:
c-Src SH2 = experiment: SH2 binding enrichment of the phosphorylated peptide, bacterial display (enrichment ratio); higher = better substrate or ligand; peptides without Tyr show the background
Grb2 SH2 = Grb2 SH2 (UniProt P62993); experiment: as above
SHP2-C SH2 = experiment: as above
Fer (mouse) = experiment: phosphorylation enrichment, bacterial display (enrichment ratio); higher = better substrate or ligand; peptides without Tyr show the background
FGFR1 = FGFR1 (UniProt P11362); experiment: as above
EPHB1 = EPHB1 (UniProt P54762); experiment: as above
Fes = Fes (UniProt P07332); experiment: as above
EPHB2 = EPHB2 (UniProt P29323); experiment: as above
Jak2 = Jak2 (UniProt O60674); experiment: as above
FGFR3 = FGFR3 (UniProt P22607); experiment: as above
c-Abl (mouse) = experiment: as above
AncSZ = experiment: as above
c-Src = experiment: as above
Hck = Hck (UniProt P08631); experiment: as above
MERTK = MERTK (UniProt Q12866); experiment: as above
Fyn = Fyn (UniProt P06241); experiment: as above
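For SH2 binding enrichment of the phosphorylated peptide, bacterial display in this document: peptide library displayed on the E. coli surface as eCPX fusions, selected cells deep-sequenced, score is each peptide's frequency after selection divided by its frequency in the input.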
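For phosphorylation enrichment, bacterial display in this document: 11-residue human phosphosite peptides and single-mutation variants displayed on the E. coli surface, counted by deep sequencing, each peptide's frequency after selection divided by its frequency in the unselected input library; frequency after pTyr selection over input frequency; kinase dosed for 20-30% of maximal phosphorylation in three min.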

Chain of EPHB2 (P29323 whole entry, looked up): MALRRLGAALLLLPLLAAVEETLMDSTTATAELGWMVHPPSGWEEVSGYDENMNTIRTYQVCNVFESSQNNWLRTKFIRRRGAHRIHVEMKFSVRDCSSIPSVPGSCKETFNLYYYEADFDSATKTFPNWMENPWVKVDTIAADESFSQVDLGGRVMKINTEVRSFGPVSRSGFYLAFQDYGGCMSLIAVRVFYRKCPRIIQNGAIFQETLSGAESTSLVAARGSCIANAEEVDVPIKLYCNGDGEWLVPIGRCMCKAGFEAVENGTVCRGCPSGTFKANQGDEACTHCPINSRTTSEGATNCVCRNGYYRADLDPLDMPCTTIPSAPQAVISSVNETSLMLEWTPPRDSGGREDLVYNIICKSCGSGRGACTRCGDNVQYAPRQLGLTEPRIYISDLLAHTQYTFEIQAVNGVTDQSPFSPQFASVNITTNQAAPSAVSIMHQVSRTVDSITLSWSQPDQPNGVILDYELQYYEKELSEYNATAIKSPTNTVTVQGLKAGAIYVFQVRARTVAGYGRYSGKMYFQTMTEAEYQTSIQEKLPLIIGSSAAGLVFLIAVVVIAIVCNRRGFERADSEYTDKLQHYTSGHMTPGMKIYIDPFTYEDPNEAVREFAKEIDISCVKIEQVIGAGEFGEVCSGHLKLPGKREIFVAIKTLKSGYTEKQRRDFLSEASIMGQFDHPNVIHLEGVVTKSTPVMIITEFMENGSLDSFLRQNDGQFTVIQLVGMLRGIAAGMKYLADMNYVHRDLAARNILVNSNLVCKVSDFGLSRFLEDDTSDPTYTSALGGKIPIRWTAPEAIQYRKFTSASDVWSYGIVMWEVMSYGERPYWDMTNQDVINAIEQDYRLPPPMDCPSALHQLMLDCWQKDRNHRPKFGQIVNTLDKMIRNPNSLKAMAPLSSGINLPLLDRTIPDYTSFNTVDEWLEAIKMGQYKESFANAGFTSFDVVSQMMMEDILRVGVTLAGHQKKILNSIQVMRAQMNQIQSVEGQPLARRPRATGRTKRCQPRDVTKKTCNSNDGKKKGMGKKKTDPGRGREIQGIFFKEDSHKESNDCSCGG
Chain of Jak2 (O60674 whole entry, looked up): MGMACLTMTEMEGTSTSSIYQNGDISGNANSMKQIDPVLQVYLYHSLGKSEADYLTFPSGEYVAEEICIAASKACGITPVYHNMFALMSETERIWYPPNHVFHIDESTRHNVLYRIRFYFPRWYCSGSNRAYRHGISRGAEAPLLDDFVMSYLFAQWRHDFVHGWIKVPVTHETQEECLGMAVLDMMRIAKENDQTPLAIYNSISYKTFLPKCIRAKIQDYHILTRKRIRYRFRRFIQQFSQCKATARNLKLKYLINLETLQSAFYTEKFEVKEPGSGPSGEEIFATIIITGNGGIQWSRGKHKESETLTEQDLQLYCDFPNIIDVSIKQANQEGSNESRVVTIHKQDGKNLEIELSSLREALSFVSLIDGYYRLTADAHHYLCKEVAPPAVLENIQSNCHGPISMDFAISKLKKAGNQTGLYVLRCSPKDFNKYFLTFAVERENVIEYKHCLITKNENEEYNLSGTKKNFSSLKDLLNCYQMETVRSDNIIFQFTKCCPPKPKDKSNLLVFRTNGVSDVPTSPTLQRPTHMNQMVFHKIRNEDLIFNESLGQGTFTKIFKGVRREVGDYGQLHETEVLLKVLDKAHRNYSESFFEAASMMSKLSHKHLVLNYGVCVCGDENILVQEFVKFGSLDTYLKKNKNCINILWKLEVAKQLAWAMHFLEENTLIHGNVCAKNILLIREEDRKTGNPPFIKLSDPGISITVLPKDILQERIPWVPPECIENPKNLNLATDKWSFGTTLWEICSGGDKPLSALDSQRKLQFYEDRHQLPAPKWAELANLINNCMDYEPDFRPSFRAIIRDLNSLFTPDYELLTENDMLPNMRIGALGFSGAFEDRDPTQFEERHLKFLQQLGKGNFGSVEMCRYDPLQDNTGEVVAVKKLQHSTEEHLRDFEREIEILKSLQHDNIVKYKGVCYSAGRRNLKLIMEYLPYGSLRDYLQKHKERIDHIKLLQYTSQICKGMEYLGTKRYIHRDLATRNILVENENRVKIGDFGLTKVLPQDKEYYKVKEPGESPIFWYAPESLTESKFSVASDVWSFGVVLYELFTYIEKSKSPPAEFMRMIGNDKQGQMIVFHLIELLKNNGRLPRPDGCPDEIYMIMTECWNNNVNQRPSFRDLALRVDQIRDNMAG
Chain of FGFR3 (P22607 whole entry, looked up): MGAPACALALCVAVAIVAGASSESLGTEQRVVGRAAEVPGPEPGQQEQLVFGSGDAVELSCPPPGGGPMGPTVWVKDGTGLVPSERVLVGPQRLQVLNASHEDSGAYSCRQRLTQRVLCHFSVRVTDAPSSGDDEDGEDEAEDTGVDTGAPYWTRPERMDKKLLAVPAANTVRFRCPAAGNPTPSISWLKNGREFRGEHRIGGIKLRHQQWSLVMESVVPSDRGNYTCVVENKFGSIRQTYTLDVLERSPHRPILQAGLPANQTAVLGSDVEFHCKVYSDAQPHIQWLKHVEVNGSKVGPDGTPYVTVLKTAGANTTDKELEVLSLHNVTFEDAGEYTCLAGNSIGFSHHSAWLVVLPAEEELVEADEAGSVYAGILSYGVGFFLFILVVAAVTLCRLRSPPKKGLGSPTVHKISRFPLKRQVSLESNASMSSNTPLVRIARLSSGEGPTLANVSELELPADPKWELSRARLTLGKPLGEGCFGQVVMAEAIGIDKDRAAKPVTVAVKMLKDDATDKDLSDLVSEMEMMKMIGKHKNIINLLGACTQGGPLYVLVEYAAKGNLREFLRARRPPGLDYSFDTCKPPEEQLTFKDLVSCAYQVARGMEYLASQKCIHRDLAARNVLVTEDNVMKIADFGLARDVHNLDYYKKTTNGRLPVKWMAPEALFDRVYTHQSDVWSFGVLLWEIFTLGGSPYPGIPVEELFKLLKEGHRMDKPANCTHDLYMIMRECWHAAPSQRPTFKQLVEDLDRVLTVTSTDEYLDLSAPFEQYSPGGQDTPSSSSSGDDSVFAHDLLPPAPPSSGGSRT
Chain of EPHB1 (P54762 whole entry, looked up): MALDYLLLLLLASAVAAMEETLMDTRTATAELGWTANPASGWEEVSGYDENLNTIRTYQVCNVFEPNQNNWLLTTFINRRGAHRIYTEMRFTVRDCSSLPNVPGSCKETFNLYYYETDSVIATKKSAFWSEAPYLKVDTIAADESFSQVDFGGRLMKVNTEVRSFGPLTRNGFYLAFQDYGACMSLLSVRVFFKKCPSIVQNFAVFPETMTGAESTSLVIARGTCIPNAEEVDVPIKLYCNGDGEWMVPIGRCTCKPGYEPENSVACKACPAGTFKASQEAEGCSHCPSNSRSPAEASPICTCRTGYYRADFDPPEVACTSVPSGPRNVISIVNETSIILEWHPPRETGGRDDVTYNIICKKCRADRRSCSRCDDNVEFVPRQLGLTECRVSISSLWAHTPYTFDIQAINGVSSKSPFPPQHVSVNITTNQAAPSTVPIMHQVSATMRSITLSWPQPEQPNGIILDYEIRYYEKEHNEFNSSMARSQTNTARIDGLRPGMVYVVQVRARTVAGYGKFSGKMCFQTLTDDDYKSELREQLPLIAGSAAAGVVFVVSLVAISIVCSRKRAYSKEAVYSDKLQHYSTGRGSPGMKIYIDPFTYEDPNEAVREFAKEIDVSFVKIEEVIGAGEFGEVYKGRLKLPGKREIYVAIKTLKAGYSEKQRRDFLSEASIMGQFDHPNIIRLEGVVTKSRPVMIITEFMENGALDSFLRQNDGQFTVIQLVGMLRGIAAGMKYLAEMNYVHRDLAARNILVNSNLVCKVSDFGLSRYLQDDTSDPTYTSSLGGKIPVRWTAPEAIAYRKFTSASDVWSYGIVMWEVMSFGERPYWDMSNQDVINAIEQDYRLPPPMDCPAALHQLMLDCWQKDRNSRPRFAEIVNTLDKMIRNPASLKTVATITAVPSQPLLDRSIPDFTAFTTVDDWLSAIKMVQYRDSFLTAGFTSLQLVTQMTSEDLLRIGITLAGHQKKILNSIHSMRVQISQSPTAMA
Chain of Hck (P08631 whole entry, looked up): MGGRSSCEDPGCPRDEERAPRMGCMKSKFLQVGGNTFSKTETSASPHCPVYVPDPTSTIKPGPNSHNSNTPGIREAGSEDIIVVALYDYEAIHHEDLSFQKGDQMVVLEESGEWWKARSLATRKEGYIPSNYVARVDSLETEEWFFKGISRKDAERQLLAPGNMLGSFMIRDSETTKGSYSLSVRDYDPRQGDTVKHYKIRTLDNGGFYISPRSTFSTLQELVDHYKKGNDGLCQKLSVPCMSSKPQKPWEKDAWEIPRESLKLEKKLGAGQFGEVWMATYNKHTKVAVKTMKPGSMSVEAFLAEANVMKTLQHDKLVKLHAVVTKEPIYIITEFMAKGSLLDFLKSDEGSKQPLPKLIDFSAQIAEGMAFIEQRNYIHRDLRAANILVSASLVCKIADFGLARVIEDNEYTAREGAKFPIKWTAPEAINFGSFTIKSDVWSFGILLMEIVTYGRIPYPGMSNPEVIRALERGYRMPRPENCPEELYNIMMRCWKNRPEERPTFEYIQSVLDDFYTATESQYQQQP
Chain of Fyn (P06241 whole entry, looked up, the tested form may be a part): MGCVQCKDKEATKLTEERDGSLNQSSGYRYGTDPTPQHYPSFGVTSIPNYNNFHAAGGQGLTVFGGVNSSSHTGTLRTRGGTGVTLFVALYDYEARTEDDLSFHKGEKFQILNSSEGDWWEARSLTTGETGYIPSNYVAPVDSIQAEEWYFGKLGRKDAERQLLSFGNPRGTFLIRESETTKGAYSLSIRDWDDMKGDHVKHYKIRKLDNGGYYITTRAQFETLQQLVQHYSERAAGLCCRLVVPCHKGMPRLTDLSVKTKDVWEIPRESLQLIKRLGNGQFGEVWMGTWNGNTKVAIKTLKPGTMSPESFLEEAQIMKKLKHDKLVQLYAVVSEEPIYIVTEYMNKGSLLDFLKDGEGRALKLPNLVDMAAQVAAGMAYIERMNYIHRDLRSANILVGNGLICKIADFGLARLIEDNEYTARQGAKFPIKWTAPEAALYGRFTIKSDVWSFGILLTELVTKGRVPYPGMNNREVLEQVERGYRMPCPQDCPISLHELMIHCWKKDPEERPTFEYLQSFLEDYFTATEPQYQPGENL

Sequence | SH2 binding enrichment (c-Src SH2) | SH2 binding enrichment (Grb2 SH2) | SH2 binding enrichment (SHP2-C SH2) | phosphorylation enrichment (Fer (mouse)) | phosphorylation enrichment (FGFR1) | phosphorylation enrichment (EPHB1) | phosphorylation enrichment (Fes) | phosphorylation enrichment (EPHB2) | phosphorylation enrichment (Jak2) | phosphorylation enrichment (FGFR3) | phosphorylation enrichment (c-Abl (mouse)) | phosphorylation enrichment (AncSZ) | phosphorylation enrichment (c-Src) | phosphorylation enrichment (Hck) | phosphorylation enrichment (MERTK) | phosphorylation enrichment (Fyn)
VNTMLYEKFTY [TEK_Y1108_T1106M] | 2.15 | 0.979 | 0.872 | 10.4 | 0.856 | 8.2 | 1.03 | 6.33 | 0.811 | 0.902 | 1.82 | 1.23 | 5.53 | 7.18 | 7.49 | 6.38
CEHRGYLFLAI [TEK_Y897_YF] | 0.767 | 1.49 | 1.19 | 0.508 | 0.545 | 0.502 | 0.906 | 0.69 | 1.01 | 0.628 | 0.813 | 0.951 | 0.496 | 0.45 | 0.37 | 0.443
SVVVPYEPPEI [TP53_Y220_V225I] | 0.844 | 0.854 | 0.867 | 0.4 | 0.44 | 0.552 | 1.25 | 0.62 | 0.967 | 0.665 | 0.8 | 1.15 | 0.447 | 0.616 | 0.37 | 0.408
FTGVEYSSCDT [EPHA3_Y937] | 1.92 | 0.832 | 1.14 | 0.491 | 0.478 | 0.629 | 1.12 | 0.637 | 0.905 | 0.721 | 0.755 | 1.12 | 0.555 | 0.545 | 0.419 | 0.524
GSTLSYFGLAA [P2RX7_Y343] | 0.646 | 1.14 | 0.962 | 0.43 | 1.83 | 0.483 | 1.11 | 0.621 | 6.12 | 1.6 | 0.525 | 0.725 | 0.629 | 0.63 | 0.892 | 0.571
SRIWVYNHFRC [BRCA2_Y2621_W2626C_YF] | 0.558 | 0.869 | 0.589 | 0.653 | 0.575 | 0.638 | 1.43 | 0.672 | 1.19 | 0.937 | 0.976 | 1.16 | 0.483 | 0.543 | 0.466 | 0.547
SKDQIYPMKLK [RANBP17_Y823] | 0.446 | 0.804 | 0.764 | 0.336 | 0.386 | 0.29 | 0.533 | 0.458 | 0.493 | 0.437 | 0.449 | 0.451 | 0.572 | 0.361 | 0.355 | 0.417
VAVTKYCKEEL [ATP7B_Y1078] | 0.53 | 0.813 | 0.729 | 0.494 | 0.498 | 0.508 | 0.917 | 0.547 | 0.844 | 0.776 | 0.651 | 0.877 | 0.477 | 0.593 | 0.37 | 0.455
YSTSPYLLEAA [BRIP1_Y921] | 0.629 | 0.657 | 1.15 | 0.53 | 0.551 | 0.544 | 0.931 | 0.518 | 0.694 | 0.604 | 0.959 | 0.887 | 2.21 | 1.08 | 1.38 | 4.67
EQRRAYLEGTC [HLA-C_Y183_L180R] | 0.456 | 0.867 | 0.756 | 0.498 | 0.472 | 0.578 | 1.01 | 0.528 | 0.917 | 0.675 | 0.822 | 0.832 | 0.45 | 0.524 | 0.47 | 0.482
QITQVCGFYDE [PPP2CA_Y127_Y127C] | 0.747 | 0.963 | 0.58 | 0.856 | 0.648 | 1.1 | 1.57 | 0.849 | 1.19 | 0.995 | 1.08 | 1.21 | 0.823 | 0.865 | 0.522 | 0.636
LERDIYNREEF [HLA-DPB1_Y59_Y57D] | 0.678 | 0.841 | 1.07 | 0.672 | 1.03 | 0.706 | 1.62 | 0.718 | 1.3 | 0.906 | 1.39 | 1.19 | 1.18 | 1.17 | 0.49 | 1.23
AGRSGYDNREI [BCL2_Y9_T7S] | 0.494 | 0.731 | 0.757 | 0.32 | 0.366 | 0.386 | 0.635 | 0.409 | 0.52 | 0.49 | 0.551 | 0.574 | 0.394 | 0.441 | 0.366 | 0.426
RSDEDYLCREE [POR_Y573_Y575C] | 0.595 | 0.947 | 0.749 | 0.951 | 0.623 | 0.747 | 2.34 | 0.737 | 1.34 | 1.27 | 1.01 | 1.54 | 0.765 | 0.769 | 0.785 | 0.716
TFRPPYYHRDC [HGD_Y333_N337D] | 1.05 | 1.04 | 1.2 | 0.756 | 0.874 | 0.834 | 1.28 | 0.734 | 0.82 | 1.12 | 0.639 | 1.17 | 0.583 | 0.822 | 0.499 | 0.658
